The nanobody polyreactivity screen of Harvey et al. (2022)

Test: yeast display, Sf9 membrane polyspecificity reagent, FACS + sequencing; frameworks hold sequencing errors
Method in brief: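 In a synthetic yeast display library (Saccharomyces cerevisiae BJ5465), nanobody expression was induced with galactose for 36–48 hours. FACS gates were set low and high (top ~1%) using anti-HA fluorescence for expression and streptavidin fluorescence for binding of the Sf9 membrane reagent. Each polyreactivity label is drawn from the gate of origin.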

| Sequence | polyreactivity (PSR sort gate) |
| --- | --- |
| QVQLVESGGGLVQAGGSLRLSCAASGFTFVPYAMGWYRQAPGKEREFVATISWSAGRTYYADSVKGRFTISRDNAKNTVYLQMNSLKPEDTAVYYCNARQWCQRYSKVRYDFWGQGTQVTVSS | high polyreactivity |
| QVQLVESGGGLVQAGGSLRLSCAASGFTFVQYAMGWYRQAPGKERELVATISKSGGITYYADSVKGRFTISRDNAKNTVFLQMNSLKPEVTAVYYCAAAWYYSSRGFHATWGHDYWGQGTQVTVSS | low polyreactivity |
| QVQLVESGGGLVQAGGSLRLSCAASGFTFVRNALGWYRPAPGKERELVAAITDAGRTTYADSVKGRFTISRDNAKNTVYLQMNSLKPEDTAVYYCAKGKWWGWPWYSMDYWGQGTQVTVSS | low polyreactivity |
| QVQLVESGGGLVQAGGSLRLSCAASGFTFVRYAMGWYRQAPGKDRELVAAISKSGGRTYYTDSVKGRFTISRDNAKTTVYLQMNSLKPEDTAVYYCAADPVSDYYGYGYWGQGTQVTVSS | high polyreactivity |
| QVQLVESGGGLVQAGGSLRLSCAASGFTFVSNAMGWYRQAPGKERELVAAITYSGTRTYYADSVKGRFTISRDNAKNTVYLQMNSLKPEDTAVYYCAARRGYASAYYYWGQGTQVTVSS | high polyreactivity |
| QVQLVESGGGLVQAGGSLRLSCAASGFTFVSNAMVWSRQAPGKERELVADITSDGSTNYADSVKGRFTISRDNAKNTVYLQMNSLKPEDTAVYHCATDQRSNTWVNQFDYWGQGTQVTVSS | low polyreactivity |
| QVQLVESGGGLVQAGGSLRLSCAASGFTFVSYAMGWYRQAPGKERELVAAISSRVVSTYYADSVKGRFTISRDNAKNTVYLQMNSLKPEDTAVYYCATDRYAYKLYDYWGQGTQVTVSS | low polyreactivity |
| QVQLVESGGGLVQAGGSLRLSCAASGFTFVSYAMGWYRQAPGKERELVAVIDNSDGDTYYADSVKGRFTISRDNAKNTVYLQMNSLKPEDTAVYYCAADAVIEWTDWYSAWWYYYWGQGTQVTVSS | low polyreactivity |
| QVQLVESGGGLVQAGGSLRLSCAASGFTFVVNAMAWYRQAPGKEREFVAAIRQSGGSTYYADSVKGRFTISRDNAKNTVYLQMNSLKPEDTAVYYCNAEDWGYGYDYWGQGTQVTVSS | low polyreactivity |
| QVQLVESGGGLVQAGGSLRLSCAASGFTFVVYAMGWYRQAPGKERELVAAIRRTGGSTYYADSVKGRFTISRDNAKNTVYLQMNSLKPEDTAVYYCAAHAISYQSRYRYRYGSVDYWGQGTQVTVSS | high polyreactivity |
| QVQLVESGGGLVQAGGSLRLSCAASGFTFVYYAMGWYRQAPGKEREFAYYADSVKGRFTISRDNAKNTVYLQMNSLKPEDTAVYYCNAAEDEGDRPITQVGYDYWGQGTQVTVSS | low polyreactivity |
| QVQLVESGGGLVQAGGSLRLSCAASGFTFVYYAMGWYRQAPGKERELVAAISRGGSTYYADSVKGRFTISRDNAKNTVYLQMNSLKPEDTAVYYCNAKKSGHYVSYPAYDYWGQGTQVTVSS | low polyreactivity |
| QVQLVESGGGLVQAGGSLRLSCAASGFTFVYYTMGWYRQAPGKERELVAAITSGGRTYYADSVKGRFTISRDNAKNTVYLQMNSLKPEDTAVYYCAAPDRYRGYIGYGYWGQGTQVTVSS | high polyreactivity |
| QVQLVESGGGLVQAGGSLRLSCAASGFTFWAYAMGWYRQAPGKERELVAAISGSGGNTYYADSVKGRFTISRDNAKNTVYLQMNSLKPEDTAVYYCAVEDAGQGGDYWGQGTQVTVSS | low polyreactivity |
| QVQLVESGGGLVQAGGSLRLSCAASGFTFWAYAMGWYRQAPGKERELVAVISGSGGRTYYADSVKGRFTISRDNAKNTVYLQMNSLKPEDTAVYYCNARYPRLHRTYNYWGQGTLVTVSS | high polyreactivity |
| QVQLVESGGGLVQAGGSLRLSCAASGFTFWDNAMGWYRQAPGKERELVAAISRRGGTTYYADSVKVRFTISRDNAKNTVYLQMNSLKPEDTAVYYCNKAFSLQIYATGMGYWGQGTQVTVSS | high polyreactivity |
